Starred links: 1 amine or outer side, 2 acyl side, 3 side chain; linkers in the order of their positions; H or OH if unused. Positions of bridges follow the written chain, without caps; N, C: chain ends. Non-standard residues stand in square brackets, D forms with d. Primed or numbered codes have the meaning given here. PyrS2″ = (S)-3-amino-1-((pent-4-en-1-yloxy)carbonyl)pyrrolidine-3-carboxylic acid (stapling residue), C=CCCCOC(=O)N1CC[C@@](N[*:1])(C(=O)[*:2])C1; B5(16) = 2-amino-2-(pent-4-en-1-yl)hept-6-enoic acid = 2,2-bis(4-pentenyl)glycine (stitching residue), C=CCCCC(CCCC=C)(N[*:1])C(=O)[*:2]; B5(18) = 2,2-bis(4-pentenyl)glycine (2-amino-2-(pent-4-en-1-yl)hept-6-enoic acid), stitching residue, C=CCCCC(CCCC=C)(N[*:1])C(=O)[*:2]; TfeGA = (S)-2-amino-3-((carboxymethyl)(2,2,2-trifluoroethyl)amino)propanoic acid, O=C([C@H](CN(CC(=O)[*:3])CC(F)(F)F)N[*:1])[*:2]; B5(3) = 2,2-bis(4-pentenyl)glycine (stitching residue), C=CCCCC(CCCC=C)(N[*:1])C(=O)[*:2]; S3 = (S)-2-amino-2-methylpent-4-enoic acid, C=CC[C@](C)(N[*:1])C(=O)[*:2]; Phe(2-Cl) = N[C@@H](Cc1ccccc1Cl)C(=O)O; Bta = N[C@@H](Cc1csc2ccccc12)C(=O)O; αAllylPro = C=CC[C@@]1(C(=O)O)CCCN1; tBuAla = CC(C)(C)C[C@H](N)C(=O)O; 3Thi = N[C@@H](Cc1ccsc1)C(=O)O; S8 = C=CCCCCCC[C@](C)(N)C(=O)O; hSer = N[C@@H](CCO)C(=O)O; Aib = CC(C)(N)C(=O)O
What was measured:
B-cat-Halo = target: T1, B-cat-Halo (UniProt P35222 1-781); test: cell-based or functional assay
T1 sequence (looked up): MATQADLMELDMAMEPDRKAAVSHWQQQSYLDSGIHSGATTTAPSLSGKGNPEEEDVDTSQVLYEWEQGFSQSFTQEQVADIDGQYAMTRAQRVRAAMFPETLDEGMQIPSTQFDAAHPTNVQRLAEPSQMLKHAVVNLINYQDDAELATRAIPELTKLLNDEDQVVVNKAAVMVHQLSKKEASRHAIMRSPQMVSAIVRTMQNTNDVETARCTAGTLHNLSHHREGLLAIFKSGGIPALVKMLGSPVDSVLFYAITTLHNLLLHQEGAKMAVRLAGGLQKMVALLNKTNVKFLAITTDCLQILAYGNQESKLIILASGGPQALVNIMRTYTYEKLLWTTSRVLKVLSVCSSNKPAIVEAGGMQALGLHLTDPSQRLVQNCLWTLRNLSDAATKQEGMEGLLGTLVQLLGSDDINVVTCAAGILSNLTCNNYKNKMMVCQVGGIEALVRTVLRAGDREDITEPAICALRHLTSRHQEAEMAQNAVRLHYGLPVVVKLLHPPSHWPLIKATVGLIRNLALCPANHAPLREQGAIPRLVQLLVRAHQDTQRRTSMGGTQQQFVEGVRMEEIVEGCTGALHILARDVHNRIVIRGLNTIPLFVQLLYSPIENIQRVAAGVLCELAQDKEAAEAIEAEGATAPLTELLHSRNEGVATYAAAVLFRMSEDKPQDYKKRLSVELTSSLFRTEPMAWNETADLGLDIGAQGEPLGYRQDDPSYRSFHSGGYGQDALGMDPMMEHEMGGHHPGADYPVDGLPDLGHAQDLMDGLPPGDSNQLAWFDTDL

[1] = target: T2, beta-catenin in DLD1 TCF/LEF luciferase reporter cells (UniProt P35222 1-781); test: cell-based or functional assay
T2 sequence (looked up): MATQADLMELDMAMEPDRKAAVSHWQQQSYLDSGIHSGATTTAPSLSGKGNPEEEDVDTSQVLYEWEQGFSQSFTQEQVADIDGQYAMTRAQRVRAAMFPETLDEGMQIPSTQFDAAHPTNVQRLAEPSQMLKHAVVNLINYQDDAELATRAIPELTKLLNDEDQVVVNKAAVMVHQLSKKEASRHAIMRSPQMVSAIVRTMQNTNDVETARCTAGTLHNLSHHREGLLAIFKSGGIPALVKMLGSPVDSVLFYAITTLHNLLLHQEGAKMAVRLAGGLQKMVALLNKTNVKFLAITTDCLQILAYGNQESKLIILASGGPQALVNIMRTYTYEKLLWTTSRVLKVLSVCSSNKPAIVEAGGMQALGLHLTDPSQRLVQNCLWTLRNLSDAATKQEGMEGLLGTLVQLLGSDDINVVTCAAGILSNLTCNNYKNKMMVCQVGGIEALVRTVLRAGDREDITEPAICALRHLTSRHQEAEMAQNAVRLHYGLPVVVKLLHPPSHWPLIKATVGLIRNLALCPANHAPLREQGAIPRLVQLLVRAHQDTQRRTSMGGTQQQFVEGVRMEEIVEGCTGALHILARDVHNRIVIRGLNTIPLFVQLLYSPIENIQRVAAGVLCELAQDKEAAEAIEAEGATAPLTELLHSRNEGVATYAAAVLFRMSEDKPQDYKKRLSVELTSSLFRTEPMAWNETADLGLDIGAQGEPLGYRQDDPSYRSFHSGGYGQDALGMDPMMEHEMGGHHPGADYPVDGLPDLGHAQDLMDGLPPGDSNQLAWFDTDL

[2] = target: T3, B-cat-Halo (beta-catenin HaloTag Nano-BRET construct) (UniProt P35222 1-781); test: cell-based or functional assay
T3 sequence (looked up): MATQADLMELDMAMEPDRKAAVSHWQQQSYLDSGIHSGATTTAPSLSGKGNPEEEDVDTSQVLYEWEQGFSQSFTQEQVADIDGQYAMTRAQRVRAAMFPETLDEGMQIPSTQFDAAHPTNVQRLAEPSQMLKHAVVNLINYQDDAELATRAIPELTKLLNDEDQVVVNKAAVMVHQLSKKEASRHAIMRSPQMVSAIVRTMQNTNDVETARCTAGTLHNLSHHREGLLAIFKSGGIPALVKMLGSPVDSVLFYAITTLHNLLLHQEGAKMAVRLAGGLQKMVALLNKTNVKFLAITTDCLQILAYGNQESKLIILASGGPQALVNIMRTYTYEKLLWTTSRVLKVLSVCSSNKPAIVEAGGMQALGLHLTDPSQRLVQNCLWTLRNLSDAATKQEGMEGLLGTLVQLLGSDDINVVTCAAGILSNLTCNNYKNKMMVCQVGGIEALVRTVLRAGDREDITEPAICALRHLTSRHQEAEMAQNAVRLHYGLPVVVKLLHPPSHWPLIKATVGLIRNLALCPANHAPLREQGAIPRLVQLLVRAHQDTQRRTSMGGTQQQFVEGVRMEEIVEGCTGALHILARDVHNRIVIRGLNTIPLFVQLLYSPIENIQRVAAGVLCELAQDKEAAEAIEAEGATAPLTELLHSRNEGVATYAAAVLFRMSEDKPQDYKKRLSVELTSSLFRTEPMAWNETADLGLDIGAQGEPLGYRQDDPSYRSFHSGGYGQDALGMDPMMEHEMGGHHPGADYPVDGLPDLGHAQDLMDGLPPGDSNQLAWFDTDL

[3] = target: T4, full-length beta-Catenin (Uniprot ID P35222) (Homo sapiens (Human), UniProt P35222 2-781); test: fluorescence polarization competition; 10 nM full-length beta-catenin + 10 nM 5FAM-TCF4 10-53 as competitor probe
T4 construct: Used at 10 nM in the FP probe solution as 'full-length'; Also used here for the endogenous beta-catenin of the DLD1 TCF/LEF reporter cells (functional rows); also called bCat; B-Catenin
T4 sequence: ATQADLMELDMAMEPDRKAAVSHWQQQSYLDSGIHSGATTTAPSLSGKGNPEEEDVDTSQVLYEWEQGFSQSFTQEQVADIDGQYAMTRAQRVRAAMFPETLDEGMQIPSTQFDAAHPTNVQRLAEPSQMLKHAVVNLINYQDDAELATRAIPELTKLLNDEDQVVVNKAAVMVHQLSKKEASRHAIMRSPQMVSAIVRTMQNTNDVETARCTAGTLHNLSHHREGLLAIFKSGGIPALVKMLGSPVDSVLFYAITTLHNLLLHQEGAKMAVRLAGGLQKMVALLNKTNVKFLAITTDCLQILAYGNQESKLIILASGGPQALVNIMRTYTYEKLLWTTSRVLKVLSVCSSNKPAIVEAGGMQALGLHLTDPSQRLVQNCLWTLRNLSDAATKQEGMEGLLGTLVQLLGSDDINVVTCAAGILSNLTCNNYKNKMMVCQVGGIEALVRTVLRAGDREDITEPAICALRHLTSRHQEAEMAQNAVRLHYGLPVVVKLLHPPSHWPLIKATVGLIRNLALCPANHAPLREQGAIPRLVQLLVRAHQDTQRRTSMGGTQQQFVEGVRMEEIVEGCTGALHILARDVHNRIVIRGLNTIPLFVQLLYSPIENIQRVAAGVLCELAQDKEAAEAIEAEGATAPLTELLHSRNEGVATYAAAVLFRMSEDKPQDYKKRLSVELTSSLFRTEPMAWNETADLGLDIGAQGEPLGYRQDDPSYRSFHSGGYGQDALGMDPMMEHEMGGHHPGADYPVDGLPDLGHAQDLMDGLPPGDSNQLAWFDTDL
Experimental: The plate was incubated protected from light for 60 minutes at 20° C. prior to read. Reads were performed on a CLARIOstar plate reader (BMG Labtech) in duplicate, and data were fitted to a 1:1 binding model with hill slope using an in-house script. All provided concentrations are final concentrations.

B1: I-999 (peptide)
peptide: Ac-[αAllylPro]D[tBuAla][B5(3)]D[TfeGA]AAFS[S8][Phe(2-Cl)][Bta][hSer]-NH2
modifications: staple 1-4, 4-11; also: later-eluting HPLC isomer
In the case of B1, the “NanoBRET Abs IC50” value (B-cat-Halo) is reported as 26.3 µM and the “DLD1 4% Abs IC50” value [1] is reported as 5.6 µM.

B2: I-1000 (peptide)
peptide: Ac-[αAllylPro]D[tBuAla][B5(3)]D[TfeGA]AAF[hSer][S8][Phe(2-Cl)][Bta][hSer]-NH2
modifications: staple 1-4, 4-11
With B2 the “NanoBRET Abs IC50” value (B-cat-Halo) was 23.9 µM and the “DLD1 4% Abs IC50” value [1] was 1.9 µM.

B3: I-1008 (peptide)
peptide: Ac-[αAllylPro]D[tBuAla][B5(18)]D[TfeGA]FAFN[PyrS2″][Phe(2-Cl)][Bta]Q-NH2
modifications: staple 1-4, 4-11
In the case of B3, the “NanoBRET Abs IC50” value (B-cat-Halo) is reported as 14 µM and the “DLD1 4% Abs IC50” value [1] is reported as 4.7 µM.

B4: I-1015 (peptide)
peptide: Ac-[αAllylPro]D[tBuAla][B5(18)]DDAAFT[PyrS2″][Phe(2-Cl)][Bta]S-NH2
modifications: staple 1-4, 4-11
In the case of B4, the “NanoBRET Abs IC50” value (B-cat-Halo) is reported as 8.9 µM and the “DLD1 4% Abs IC50” value [1] is reported as 5.7 µM.

B5: I-1983 (peptide)
peptide: Ac-[αAllylPro]D[tBuAla][S3]DDAAFL[Aib][3Thi][Bta]Q-NH2
modifications: staple 1-4; not fully specified; printed as Ac-PL3-Asp-Npg-S3-Asp-Asp-Ala-Ala-Phe-Leu-Aib-3Thi-BztA-Gln-NH2; also: staple -CH=CH- reduced to -CH2-CH2-
B5 was tested, and the “NanoBRET Abs IC50” value [2] was > 20 µM.

B6: I-1043 (peptide)
peptide: Ac-[αAllylPro]DF[B5(16)]DDAAFT[PyrS2″][Phe(2-Cl)][Bta]Q-NH2
modifications: staple 1-4, 4-11
notes: Stapled (stitched) peptide composition
For B6, the EC50 [3] was 0.012 µM.

Source: US20240116985A1 (published 2024)
